Measured values as given in paper PMC6216019.
Where two headings read alike, the source gives them in different places. Values belong to the substance of their own block, whether it stands above or below them.

Columns and labels:
[1] = target: AcrB_(P223G) (E. coli) (UniProt P31224); test: native gel or EMSA
[2] = target: AcrB_(P223G)-CFP (E. coli) (UniProt P31224); test: FRET or BRET
[3] = target: AcrB_(P223G)-CFP (E. coli) (UniProt P31224); test: FRET or BRET; remark: listed apart in the source
[4] = target: AcrB-CFP (E. coli) (UniProt P31224); test: FRET or BRET
[5] = target: AcrB-CFP (E. coli) (UniProt P31224); test: FRET or BRET; remark: listed apart in the source
[6] = target: AcrB_(V225C/A777C) (E. coli) (UniProt P31224); test: cross-linking
[7] = target: AcrB_(P223G/V225C/A777C) (E. coli) (UniProt P31224); test: cross-linking

- stoichiometry N [1]: 3
Substance: AcrB_(P223G) (from UniProt P31224 1-1049) (natural protein)

- stoichiometry N [6]: 3
Substance: AcrB_(V225C/A777C) (from UniProt P31224 1-1049) (natural protein)

- stoichiometry N [7]: 3
Substance: AcrB_(P223G/V225C/A777C) (from UniProt P31224 1-1049) (natural protein)

Continued, substance first:

Substance: AcrB_(P223G)-YPet (from UniProt P31224 1-1049) (natural protein)
- FRET efficiency [2]: 26%
- FRET efficiency [3]: 22%

Substance: AcrB-YPet (from UniProt P31224 1-1049) (natural protein)
- FRET efficiency [4]: 35%
- FRET efficiency [5]: 50%
